Patent US20020146797

Tested on: RR-Src peptide

Substance | KM (mM) for protein substrate RR-Src, ATP saturated [mM] | KM (mM) for protein substrate RR-Src, N^6-(cyclopentyl)ATP saturated [mM]
GST-XD4 (glutathione S-transferase fusion of the XD4 fragment of v-Src, wild-type catalytic domain) | 2.6 | –
GST-XD4(V323A, I338A) | 3.1 | 2.1
